Measured values: patent publication US20180258175A1 (ABLEXIS, published 2018)

What was measured:
[1] = target: T1, human CD115 extracellular domain (Sino Biological 10161-H08H) (human, UniProt P07333 20-517); assay: competition ELISA, competitor TMR 24A;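 further: clonal anti-huCD115 hybridoma supernatant antibodies bound with a competitor mouse antibody present, and failure to bind puts a clone in that competitor's epitope bin; low signal means same epitope bin as the mouse competitor antibody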
T1 construct: extracellular domain; bought recombinant protein; also called huCD115; hu-CD115

[2] = target: T1, human CD115 extracellular domain (Sino …); assay: competition ELISA, competitor TMR 44B;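 further: binding of antibodies from single-clone hybridoma supernatants to huCD115 measured with the competitor antibody present, a drop in signal meaning both share an epitope bin; low signal means same epitope bin as the mouse competitor antibody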
[3] = target: T1, human CD115 extracellular domain (Sino …); assay: competition ELISA, competitor TMR 100A;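 further: clonal anti-huCD115 hybridoma supernatants tested for binding with the competitor antibody present, clones failing to bind are assigned to the competitor's epitope bin; low signal means same epitope bin as the mouse competitor antibody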
[4] = target: T1, human CD115 extracellular domain (Sino …); assay: competition ELISA, competitor TMR 35A;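 further: clonal hybridoma supernatant antibodies added to wells after the competitor mouse antibody, lost binding signal puts an antibody in that competitor's epitope bin; low signal means same epitope bin as the mouse competitor antibody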
[5] = target: T1, human CD115 extracellular domain (Sino …); assay: competition ELISA, competitor TMR 20A
[6] = target: T1, human CD115 extracellular domain (Sino …); assay: competition ELISA, competitor TMR 95A
[7] = target: T1, human CD115 extracellular domain (Sino …); assay: SPR ProteOn, supernatant mAb captured on anti-mouse IgG, Hu CD115 analyte

| Binder | signal vs NO COMP=100 [1] [%] | signal vs NO COMP=100 [2] [%] | signal vs NO COMP=100 [3] [%] | signal vs NO COMP=100 [4] [%] | signal vs NO COMP=100 [5] [%] | signal vs NO COMP=100 [6] [%] | Kd [7] [nM] | koff [7] [s⁻¹] | kon [7] [M⁻¹ s⁻¹] |
| --- | --- | --- | --- | --- | --- | --- | --- | --- | --- |
| CCK-461A (antibody, V domains shown, AlivaMab chimeric IgG, human kappa LC) VH: QVQLQESGPGLVKPSETLSLTCTVSGGSISSYYWTWIRQPPGKGLEWIGYISYSGGTNYNPSLKSRVTISVDTSKNQFSLKLSSVTAADTAVYYCARELGNYWGQGTLVTVSS VL: not shown | 27 | 41 | 110 | 110 | 110 | 15 | – | – | – |
| CCK-539A (antibody, V domains shown, AlivaMab chimeric IgG, human kappa LC) VH: QVQLVESGGGVVQPGRSLRLSCAASGFTFSTFAMHWVRQAPGKGLEWVAVISYDGSNKYYVDSVKGRFTISRDNSKNTLYLQMNSLRAEDTAMYYCARDGTGDALDIWGQGTMVTVSS VL: not shown | – | – | – | – | – | – | 2.7 | 8.5e-05 | 32000 |
| CCK-421A (antibody, V domains shown, AlivaMab chimeric IgG, human kappa LC) VH: QVQLQESGPGLVKPSETLSLTCTVTGGSISSYYWSWIRQPAGKGLEWIGRIYTSGSTNYNPSLKSRVTMSVDTSKNHFSLKLSSVTAADTAVYYCAREILVVVAATRTGGVFDIWGQGTMVTVSS VL: DIQMTQSPSTLSASVGDRVTITCRASQSISSWLAWYQRKPGKAPKLLIYKASTLESGVPSRFSGSGSGTEFTLTISSLQPDDFATYYCQQFNSYWTFGQGTKVEIK | 18 | 55 | 99 | 100 | 104 | 9 | – | – | – |
| CCK-525A (antibody, V domains shown, AlivaMab chimeric IgG, human kappa LC) VH: QVQLVESGGGVVQPGRSLRLSCAASGFTFSSYGMHWVRQAPGKGLEWVAVIWYDGSIKYYADSVKGRFTISRDNSKNTLYLQMNSLRAEDTAVYYCARATYYYDSSGYYSNWFDPWGQGTLVTVSS VL: DIQMTQSPSSVSASVGDRVTITCRASQGISSWLAWYQQKPGKAPKLLIYAASSLQSGVPSRFSGSGSGTDFTLTISSLQPEDFATYYCQQANTFPFTVGPGTKVDIK | 13 | 56 | 100 | 88 | 80 | 11 | – | – | – |
| 487 (Table 4, bin 3 block) (antibody, V domains shown, not tied) VH: QVQLQESGPGLVKPSETLSLTCTVSGGSISSYYWSWIRQPAGKGLEWIGHIFSSGSTNYNPSLKSRVTMSVDTSKSQFSLKLSSVTAADTAVYLCARGGVTWFDPWGQGTLVTVSS VL: not shown | 86 | 94 | 103 | 6 | 97 | 84 | – | – | – |
| CCK-519A (antibody, V domains shown, AlivaMab chimeric IgG, human kappa LC) VH: not shown VL: DIVMTQTPLSLPVTPGEPASISCRSSQSLLDSDDGNTYLDWYLQKPGQSPQLLIYTLSYRASGVPDRFSGSGSGTDFTLKISRVEAEDVGVYYCMQRIEFPITFGQGTRLEIK | 110 | 12 | 118 | 110 | 6 | 36 | 0.86 | 7.71e-05 | 90000 |
| CCK-516A (antibody, V domains shown, AlivaMab chimeric IgG, human kappa LC) VH: not shown VL: DIVMTQTPLSLPVTPGEPASISCRSSQSLLDSDDGNTYLDWYLQKPGQSPQLLIYTLSYRASGVPDRFSGSGSGTDFTLKISRVEAEDVGVYYCMQRIEFPLTFGGGTKVEIK | 39 | 10 | 87 | 82 | 70 | 20 | – | – | – |
| CCK-533A (antibody, V domains shown, AlivaMab chimeric IgG, human kappa LC) VH: QVQLVQSGAEVKKPGASVKVSCKASGYTFTGYYMHWVRQAPGQGLEWMGRINPNSGGTYYAQKFQGRVTMTRDTSISTAYVELSRLRSDDTAVYYCARKNPWGHFDYWGQGTLVTVSS VL: DIVMTQTPLSLPVTPGEPASISCRSSQSLLDSDDGNTYLDWYLQKPGQSPQLLIYTLSYRASGVPDRFSGSGSGTDFTLKISRVEAEDVGVYYCMQRIEFPYTFGQGTKLEIK | – | – | – | – | – | – | 0.317 | 3.92e-05 | 124000 |
| CCK-467A (antibody, V domains shown, AlivaMab chimeric IgG, human kappa LC) VH: EVQLVESGGGLVKPGGSLRLSCAASGFTFSSYSMNWVRQAPGKGLEWVSSISSSSSYIYYADSVKGRFTISRDNAKNSLFLQMNSLRAEDTAVYYCARGGSFPYNWFDPWGQGTLVTVSS VL: not shown | 58 | 22 | 102 | 83 | 96 | 46 | 0.65 | 1.48e-05 | 23000 |
| CCK-514A (antibody, V domains shown, AlivaMab chimeric IgG, human kappa LC) VH: EVQLVESGGGLVKPGGSLRLSCAASGFTFSSYSMNWVRQAPGKGLEWVSSISSSSSYIYYADSVKGRFTISRDNAKNSLYLQMNSLRAEDTAVYYCARGGSYPYNWFDPWGQGTLVTVSS VL: not shown | 53 | 4 | 103 | 75 | 84 | 42 | – | – | – |
| 549 (Table 4, bin 1D block) (antibody, V domains shown, not tied) VH: QVQFVESGGGVVQPGRSLRLSCAASGFTLSSYGMHWVRQAPGKGLEWVAVIWYDGSNEYYADSVKGRFTISRDNSKNTLYLQMNSLRAEDTAVYYCARDRAWGSGDWGQGTLVTVSS VL: not shown | 111 | 2 | 100 | 89 | 59 | 1 | – | – | – |

Further lines, results first:

| signal vs NO COMP=100 [1] [%] | signal vs NO COMP=100 [2] [%] | signal vs NO COMP=100 [3] [%] | signal vs NO COMP=100 [4] [%] | signal vs NO COMP=100 [5] [%] | signal vs NO COMP=100 [6] [%] | Kd [7] [nM] | koff [7] [s⁻¹] | kon [7] [M⁻¹ s⁻¹] | Binder |
| --- | --- | --- | --- | --- | --- | --- | --- | --- | --- |
| 42 | 27 | 96 | 64 | 73 | 27 | 1.97 | 5.3e-05 | 27000 | CCK-456A (antibody, V domains shown, AlivaMab chimeric IgG, human kappa LC) VH: EVHLVESGGGLVKPGGSLRLSCAASGFTFSSYSMNWFRQAPGKGLEWVSSISSSSSYIYYADSVKGRFTISRDNAKNSLSLQMNSLRAEDTAVYYCARAGAVAALYNWFDPWGQGTLVTVSS VL: not shown |
| 35 | 3 | 106 | 82 | 89 | 10 | 0.158 | 2.11e-05 | 133000 | CCK-418A (antibody, V domains shown, AlivaMab chimeric IgG, human kappa LC) VH: QVQLQESGPGLVKPSETLSLTCTVSGGSISSYYWSWIRQPAGKGLEWIGRIYTSGTTNFNPSLKSRVTMSVDTSKNQFSLKLSSVTAADTAVYYCATLSGTNWGSPFDYWGQGTLVTVSS VL: not shown |
| 29 | 53 | 98 | 102 | 98 | 16 | – | – | – | CCK-424A (antibody, V domains shown, AlivaMab chimeric IgG, human kappa LC) VH: QVQLQESGPGLVKPSETLSLTCTVSGGSISSYYWSWIRQPPGKVLEWIGYFSYNGNTNYNPSLKSRVTISVDTSKNQFSLKLSSVTAADTAVYYCTRGMDVWGQGTTVTVSS VL: DIQMTQSPSTLSASVGDRVTITCRASQSISDWLAWYLQKPGKAPKLLIYKASSLESGVPSRFSGSGSGTAFTLTISSLQPDDFATYYCQQYNSHWTFGQGTKVEIK |
| 39 | 0 | 96 | 85 | 87 | 57 | – | – | – | CCK-464A (antibody, V domains shown, AlivaMab chimeric IgG, human kappa LC) VH: EVQLVESGGGLVKPGGSLRLSCAASGFTFSSYNMNWVRQAPGKGLEWVSSISSSSTYIYYADSLKGRFTISRDNAMNSLYLQMSSLRAEDTAVYYCARDSGTYPYYYFGMDVWGQGTTVTVSS VL: DIQLTQSPSFLSASVGDRVTITCRASQGISSYLAWYQQKPGKAPKLLIYAASTLQSGVPSRFSGSGSGTEFTLTISSLQPEDFATYYCQQLNTYPRTFGQGTKVEIK |
| – | – | – | – | – | – | 0.95 | 6.54e-05 | 69000 | CCK-407A (antibody, V domains shown, AlivaMab chimeric IgG, human kappa LC) VH: QVQLQESGPGLVKPSETLSLTCTVSGGSISSYYWSWIRQPAGKGLEWIGHIFSSGSTNYNPSLKSRVTMSVDTSKSQFSLKLSSVTAADTAVYLCARGGVTWFDPWGQGTLVTVSS VL: not shown |
| 85 | 24 | 95 | 104 | 53 | 61 | – | – | – | CCK-468A (antibody, V domains shown, AlivaMab chimeric IgG, human kappa LC) VH: EVQLVESGGGLVQPGRSLRLSCTASGFTFGDYAMTWFRQAPGKGLEWVGFIRSKAYGGTTEYAASVKGRFTISRDDSKSIAYLQMNSLKTEDTAVYYCTREGSFGALDIWGQGTMVTVSS VL: not shown |
| 75 | 45 | 107 | 112 | 84 | 38 | – | – | – | 429 (Table 4, bin 1C block) (antibody, V domains shown, not tied) VH: QVQLEQSGAEVKRPGASVKVSCKASGYTFTGYYMHWVRQAPGQGLEWMGWINPNRGDTNYAQKFQGRVTMTRDTSISTAYMELSRLRSDDTAVYYCARDLEGGGPFDYWGQGTLVTVSS VL: DIVMTQTPLSLPVTPGEPASISCRSSQSLLDSDDGNTYLDWYLQKPGQSPQLLIYTLSYRASGVPDRFSGSGSGTDFTLKISRVEAEDVGVYYCMQRIEFPSTFGQGTRLEIK |
